Measurements: paper PMC6602974 (2019)

B1: CH505 transmitted founder gp120 (domain or fragment)
chain: not shown

Legend:
[1] = molecular target: DH796.1; experiment: SPR
[2] = molecular target: B1; experiment: SPR

Binder	Kd [1] [nM]	Kd [2] [nM]
B1	253	–
DH727.2 monoclonal antibody (IgG1) (antibody, V domains shown) VH: QVQLVQSGAEVKKPGASVKLSCKASGNTFSIYGISWVRQAPGQGLEWMGGIIPPAGLTNYVQRFQGRVTITADTSTTTVYMELSSLTSEDTAVYYCAIRIGRGFDYWGQGVLVTVSS VL: DIVMTQSPLSLPVTPGETASISCRSSQSLLDSEDGNTYLEWYLQKPGQSPQALIYEASNRASGVPDRFSGSGSDTDFTLKISRVEAEDVGIYYCMQTIEYPFTFGPGTKVDIK	–	10.9
DH753 monoclonal antibody (IgG1) (antibody, V domains shown) VH: EVHLVESGGGLVQPGGSLRLSCEVSGLTFSNSWMSWVRQAPGKGLEWVGFIKTKADGGTAAYAESVKGRFTISRDDSKNTVFLQMKSLKTEDTAVYYCQGAVVISHEYIEIWGQGALVTVSS VL: QSVLTQPPSASEAARKSVTISCSGGSSNIGDDSVSWYQQVPGTAPKLLIYYNDRRASGVSDRFSGSKSGTSASLAINGLQSEDEADYYCAAWDDSLSAYIFGSGTRLTVL	–	1.2
